Results published in article PMC4449551, “The dominant negative ARM domain uncovers multiple functions of PUB13 in Arabidopsis immunity, flowering, and senescence” (Journal of Experimental Botany, 2015).

Molecular target: T1, GST–PUB13 (Arabidopsis, UniProt Q9SNC6 1-660)
T1 construct: PUB13, plant U-box E3 ubiquitin ligase of Arabidopsis, full length (UND, U-box and ARM repeat domain); also called full-length PUB13; source: E. coli BL21, purified (glutathione agarose)
T1 sequence (looked up): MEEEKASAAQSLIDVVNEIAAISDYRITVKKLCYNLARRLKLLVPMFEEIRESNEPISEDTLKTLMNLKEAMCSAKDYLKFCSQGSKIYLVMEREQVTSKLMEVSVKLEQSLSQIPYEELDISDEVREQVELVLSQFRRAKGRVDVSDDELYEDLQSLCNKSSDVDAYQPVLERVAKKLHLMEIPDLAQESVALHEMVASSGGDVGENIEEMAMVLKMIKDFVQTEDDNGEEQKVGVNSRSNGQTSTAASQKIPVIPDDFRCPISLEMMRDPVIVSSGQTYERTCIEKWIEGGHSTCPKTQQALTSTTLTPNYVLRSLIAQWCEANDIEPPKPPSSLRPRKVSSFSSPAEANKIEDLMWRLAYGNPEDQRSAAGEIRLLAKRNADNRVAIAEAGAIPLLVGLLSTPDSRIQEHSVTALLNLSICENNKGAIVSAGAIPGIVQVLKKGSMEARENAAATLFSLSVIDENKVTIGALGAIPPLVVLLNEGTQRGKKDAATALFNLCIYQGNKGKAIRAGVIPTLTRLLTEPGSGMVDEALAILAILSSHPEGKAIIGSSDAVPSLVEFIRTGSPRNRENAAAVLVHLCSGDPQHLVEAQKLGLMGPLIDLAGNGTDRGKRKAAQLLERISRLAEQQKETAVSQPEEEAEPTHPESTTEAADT
Assay: pull-down; About 10 μg of MBP or MBP fusion on amylose beads as bait, 10 μg of GST-tagged protein in 1 ml pull-down buffer (20mM TRIS-HCl pH 7.5, 1mM β-mercaptoethanol, 3mM EDTA, 150mM NaCl, 1% NP-40), 1h at 4 °C; western blot with α-GST (Fig. 1B, 1F)
Details: both partners purified

binding result: binds
B1: MBP–BAK1CD (domain or fragment, Arabidopsis, UniProt Q94F62 247-615, looked up)
chain: AWWRRKKPQDHFFDVPAEEDPEVHLGQLKRFSLRELQVASDNFSNKNILGRGGFGKVYKGRLADGTLVAVKRLKEERTQGGELQFQTEVEMISMAVHRNLLRLRGFCMTPTERLLVYPYMANGSVASCLRERPESQPPLDWPKRQRIALGSARGLAYLHDHCDPKIIHRDVKAANILLDEEFEAVVGDFGLAKLMDYKDTHVTTAVRGTIGHIAPEYLSTGKSSEKTDVFGYGVMLLELITGQRAFDLARLANDDDVMLLDWVKGLLKEKKLEALVDVDLQGNYKDEEVEQLIQVALLCTQSSPMERPKMSEVVRMLEGDGLAERWEEWQKEEMFRQDFNYPTHHPAVSGWIIGDSTSQIENEYPSGPR
notes: BAK1 (BRI1-associated kinase), receptor-like kinase of Arabidopsis, cytoplasmic domain; also called cytoplasmic domain of BAK1; BAK1 cytosolic domain; source: E. coli BL21, purified (amylose)
